Experimental findings from US20240025959A1 (UNIVERSITY OF SOUTHERN CALIFORNIA, published 2024) are described below.

The labels stand for the following.
B3: ATG9A (human) (other, UniProt Q7Z3C6 1-839, looked up)
chain: MAQFDTEYQRLEASYSDSPPGEEDLLVHVAEGSKSPWHHIENLDLFFSRVYNLHQKNGFTCMLIGEIFELMQFLFVVAFTTFLVSCVDYDILFANKMVNHSLHPTEPVKVTLPDAFLPAQVCSARIQENGSLITILVIAGVFWIHRLIKFIYNICCYWEIHSFYLHALRIPMSALPYCTWQEVQARIVQTQKEHQICIHKRELTELDIYHRILRFQNYMVALVNKSLLPLRFRLPGLGEAVFFTRGLKYNFELILFWGPGSLFLNEWSLKAEYKRGGQRLELAQRLSNRILWIGIANFLLCPLILIWQILYAFFSYAEVLKREPGALGARCWSLYGRCYLRHFNELEHELQSRLNRGYKPASKYMNCFLSPLLTLLAKNGAFFAGSILAVLIALTIYDEDVLAVEHVLTTVTLLGVTVTVCRSFIPDQHMVFCPEQLLRVILAHIHYMPDHWQGNAHRSQTRDEFAQLFQYKAVFILEELLSPIVTPLILIFCLRPRALEIIDFFRNFTVEVVGVGDTCSFAQMDVRQHGHPQWLSAGQTEASVYQQAEDGKTELSLMHFAITNPGWQPPRESTAFLGFLKEQVQRDGAAASLAQGGLLPENALFTSIQSLQSESEPLSLIANVVAGSSCRGPPLPRDLQGSRHRAEVASALRSFSPLQPGQAPTGRAHSTMTGSGVDARTASSGSSVWEGQLQSLVLSEYASTEMSLHALYMHQLHKQQAQAEPERHVWHRRESDESGESAPDEGGEGARAPQSIPRSASYPCAAPRPGAPETTALHGGFQRRYGGITDPGTVPRVPSHFSRLPLGGWAEDGQSASRHPEPVPEEGSEDELPPQVHKV
notes: Transmembrane protein; co-IP from RIPA lysates; Tagged and endogenous human forms kept under one id; also called Flag-ATG9A; HA-ATG9A

Assay [1] deals with T1, Beclin 2 (human, full length) (human, UniProt A8MW95 1-431).
T1 construct: All tagged and endogenous human forms are kept under this one id; the form used is named under assay; also called BECN2; Flag-Beclin 2
T1 sequence: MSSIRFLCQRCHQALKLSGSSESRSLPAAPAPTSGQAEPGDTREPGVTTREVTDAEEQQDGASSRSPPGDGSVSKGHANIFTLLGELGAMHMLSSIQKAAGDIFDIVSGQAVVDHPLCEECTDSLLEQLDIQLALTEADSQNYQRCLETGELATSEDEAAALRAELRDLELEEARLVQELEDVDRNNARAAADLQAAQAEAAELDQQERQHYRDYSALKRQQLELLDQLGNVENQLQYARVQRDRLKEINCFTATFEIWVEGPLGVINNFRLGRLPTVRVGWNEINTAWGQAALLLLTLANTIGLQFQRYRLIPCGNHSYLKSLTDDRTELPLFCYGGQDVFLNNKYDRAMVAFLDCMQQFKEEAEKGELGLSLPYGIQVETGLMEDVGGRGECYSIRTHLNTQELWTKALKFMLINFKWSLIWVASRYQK
The assay can be described thus: co-IP with anti-Flag beads and immunoblot; HEK293T cells co-transfected with HA-Beclin 2 and a Flag-tagged plasmid (FIG. 25A). On the technique in general: Immunoblotting shows a protein as a band on a membrane.
Description: Cell lysates were immunoprecipitated with anti-Flag beads and immunoblotted using indicated antibodies. […] Cell lysates were immunoprecipitated with anti-Flag beads and immunoblotted using indicated antibodies.
Whole cell lysates obtained 24 h post-transfection or via ligand stimulation were obtained using RIPA lysis buffer and shook on ice for 15 min. The HEK293T cell lysates were immunoprecipitated with anti-Flag conjugated beads (BioLegend) at 4° C. overnight.

Assay [2] addresses B3. The assay is described as follows: co-IP with anti-Flag beads; WT, BECN2 KO and ULK1 KO HEK293T cells co-transfected with HA-ATG9A and Flag-AIM2 (FIG. 30D).
Description: Pearson's correlation coefficient for colocalization was analyzed using Image J Coloc 2. Graph represents mean±s.e.m. (at least 30 cells were analyzed per condition). Representative images showing the colocalization were obtained using confocal microscopy. Scale bar: 5 μm. […] Pearson's correlation coefficient for colocalization was analyzed using Image J Coloc 2. Graph represents mean±s.e.m. (at least 30 cells were analyzed per condition). Representative images showing the colocalization were obtained using confocal microscopy. Scale bar: 5 μm. […] Data are representative of at least three independent experiments. […] MVBs, multivesicular bodies.
Assay [3] has as its target T2, ULK1 (human, UniProt O75385 1-1050).
T2 construct: also called HA-ULK1
T2 sequence (looked up): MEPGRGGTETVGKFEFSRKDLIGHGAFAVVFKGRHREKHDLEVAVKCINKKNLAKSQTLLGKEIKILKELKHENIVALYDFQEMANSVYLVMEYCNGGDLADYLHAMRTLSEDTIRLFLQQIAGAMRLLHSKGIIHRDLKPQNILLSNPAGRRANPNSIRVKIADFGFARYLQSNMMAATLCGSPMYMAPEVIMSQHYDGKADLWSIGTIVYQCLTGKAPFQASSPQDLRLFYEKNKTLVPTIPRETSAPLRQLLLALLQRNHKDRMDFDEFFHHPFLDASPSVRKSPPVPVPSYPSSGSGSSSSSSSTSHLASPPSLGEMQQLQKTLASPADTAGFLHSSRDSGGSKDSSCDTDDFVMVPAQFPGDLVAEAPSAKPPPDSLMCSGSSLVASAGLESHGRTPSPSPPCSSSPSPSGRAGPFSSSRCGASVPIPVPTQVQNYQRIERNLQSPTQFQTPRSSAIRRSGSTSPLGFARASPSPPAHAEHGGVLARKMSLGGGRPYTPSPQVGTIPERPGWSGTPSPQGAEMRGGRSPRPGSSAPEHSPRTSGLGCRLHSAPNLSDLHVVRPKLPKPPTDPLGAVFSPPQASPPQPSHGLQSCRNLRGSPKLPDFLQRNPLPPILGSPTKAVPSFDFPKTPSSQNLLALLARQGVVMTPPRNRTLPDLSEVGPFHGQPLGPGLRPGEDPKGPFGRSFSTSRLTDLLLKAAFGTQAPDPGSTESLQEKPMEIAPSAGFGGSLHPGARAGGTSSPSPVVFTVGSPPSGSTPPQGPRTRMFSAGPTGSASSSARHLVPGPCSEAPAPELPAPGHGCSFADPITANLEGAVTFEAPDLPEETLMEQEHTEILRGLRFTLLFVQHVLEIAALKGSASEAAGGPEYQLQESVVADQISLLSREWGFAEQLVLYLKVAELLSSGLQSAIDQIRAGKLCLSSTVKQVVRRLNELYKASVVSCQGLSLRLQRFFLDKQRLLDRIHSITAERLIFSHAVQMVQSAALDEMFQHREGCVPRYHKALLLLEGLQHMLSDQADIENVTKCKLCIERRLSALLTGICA
The assay is described as follows: co-IP with anti-Flag beads and immunoblot; 293T cells transfected with the indicated Flag-tagged plasmid (FIG. 12B).
Description: Data are representative of at least three independent experiments.
The secondary antibody (Veriblot for IP detection reagent HRP) that only recognized native IgG but not denatured IgG was applied for immunoblotting of proteins in immunoprecipitates. For immunoprecipitation of Flag-tagged proteins, cell lysates were incubated with anti-Flag beads (Sigma) at 4° C. overnight. The beads were washed four times with RIPA lysis buffer, and immunoprecipitates were eluted with 2×SDS loading buffer. Immunoblotting was performed by loading the samples on SDS-PAGE gels, conducting electrophoresis, transferring the samples to PVDF membranes (Bio-Rad), and then incubating the membranes with the indicated antibodies. For all immunoblots, the LumiGLO Chemiluminescent Substrate System from KPL (Gaithersburg, MD) was used for protein detection.

In assay [4] the target is T3, ATG9A (mouse, endogenous in BMDMs) (mouse, UniProt Q68FE2 2-839).
T3 construct: Endogenous protein in mouse BMDM lysates
T3 sequence (looked up): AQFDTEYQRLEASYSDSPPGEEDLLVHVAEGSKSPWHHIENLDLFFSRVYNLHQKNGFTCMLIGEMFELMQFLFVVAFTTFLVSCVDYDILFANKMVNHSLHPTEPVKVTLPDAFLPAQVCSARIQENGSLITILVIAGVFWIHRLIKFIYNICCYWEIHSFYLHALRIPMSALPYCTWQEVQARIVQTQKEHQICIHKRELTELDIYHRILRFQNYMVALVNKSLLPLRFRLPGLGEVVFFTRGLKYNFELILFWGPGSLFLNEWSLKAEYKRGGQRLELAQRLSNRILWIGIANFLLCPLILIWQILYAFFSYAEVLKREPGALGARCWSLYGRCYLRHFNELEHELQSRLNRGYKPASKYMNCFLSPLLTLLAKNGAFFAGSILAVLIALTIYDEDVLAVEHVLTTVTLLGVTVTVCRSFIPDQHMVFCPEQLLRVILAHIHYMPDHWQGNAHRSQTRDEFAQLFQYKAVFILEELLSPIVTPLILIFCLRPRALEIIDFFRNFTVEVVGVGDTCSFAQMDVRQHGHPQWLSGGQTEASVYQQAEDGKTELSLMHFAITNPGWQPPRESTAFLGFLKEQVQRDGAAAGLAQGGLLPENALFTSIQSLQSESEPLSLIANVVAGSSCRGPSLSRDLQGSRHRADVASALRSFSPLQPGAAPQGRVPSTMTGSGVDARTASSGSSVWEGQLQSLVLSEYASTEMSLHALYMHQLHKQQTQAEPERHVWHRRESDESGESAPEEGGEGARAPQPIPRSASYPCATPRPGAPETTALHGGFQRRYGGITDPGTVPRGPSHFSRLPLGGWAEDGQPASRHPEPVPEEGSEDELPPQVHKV
The assay can be described thus: endogenous co-IP; BMDM lysates (untreated or LPS) immunoprecipitated with MEKK3 antibodies, immunoblot (FIG. 12D).

B1: caspase 1 (enzyme, human, UniProt P29466 1-404, looked up)
chain: MADKVLKEKRKLFIRSMGEGTINGLLDELLQTRVLNKEEMEKVKRENATVMDKTRALIDSVIPKGAQACQICITYICEEDSYLAGTLGLSADQTSGNYLNMQDSQGVLSSFPAPQAVQDNPAMPTSSGSEGNVKLCSLEEAQRIWKQKSAEIYPIMDKSSRTRLALIICNEEFDSIPRRTGAEVDITGMTMLLQNLGYSVDVKKNLTASDMTTELEAFAHRPEHKTSDSTFLVFMSHGIREGICGKKHSEQVPDILQLNAIFNMLNTKNCPSLKDKPKVIIIQACRGDSPGVVWFKDSVGVSGNLSLPTTEEFEDDAIKKAHIEKDFIAFCSSTPDNVSWRHPTMGSVFIGRLIEHMQEYACSCDVEEIFRKVRFSFEQPDGRAQMPTTERVTLTRCFYLFPGH
notes: also called Flag-caspase 1
As to B1, the binding result in assay [1] was “binds”.

B2: AIM2 (human, full length) (other, UniProt O14862 1-343, looked up)
chain: MESKYKEILLLTGLDNITDEELDRFKFFLSDEFNIATGKLHTANRIQVATLMIQNAGAVSAVMKTIRIFQKLNYMLLAKRLQEEKEKVDKQYKSVTKPKPLSQAEMSPAASAAIRNDVAKQRAAPKVSPHVKPEQKQMVAQQESIREGFQKRCLPVMVLKAKKPFTFETQEGKQEMFHATVATEKEFFFVKVFNTLLKDKFIPKRIIIIARYYRHSGFLEVNSASRVLDAESDQKVNVPLNIIRKAGETPKINTLQTQPLGTIVNGLFVVQKVTEKKKNILFDLSDNTGKMEVLGVRNEDTMKCKEGDKVRLTFFTLSKNGEKLQLTSGVHSTIKVIKAKKKT
notes: also called Flag-AIM2; GFP-AIM2
For B2, the binding result in assay [2] is on record as “binds”. In the case of B3, the binding result in assay [3] was “binds”.

B4: MEKK3 (mouse, endogenous in BMDMs) (enzyme, UniProt Q61084 1-626, looked up)
chain: MDEQEALDSIMKDLVALQMSRRTRLSGYETMKNKDTGHPNRQSDVRIKFEHNGERRIIAFSRPVRYEDVEHKVTTVFGQPLDLHYMNNELSILLKNQDDLDKAIDILDRSSSMKSLRILLLSQDRNHTSSSPHSGVSRQVRIKPSQSAGDINTIYQAPEPRSRHLSVSSQNPGRSSPPPGYVPERQQHIARQGSYTSINSEGEFIPETSEQCMLDPLSSAENSLSGSCQSLDRSADSPSFRKSQMSRARSFPDNRKECSDRETQLYDKGVKGGTYPRRYHVSVHHKDYNDGRRTFPRIRRHQGNLFTLVPSSRSLSTNGENMGVAVQYLDPRGRLRSADSENALTVQERNVPTKSPSAPINWRRGKLLGQGAFGRVYLCYDVDTGRELASKQVQFDPDSPETSKEVSALECEIQLLKNLQHERIVQYYGCLRDRAEKILTIFMEYMPGGSVKDQLKAYGALTESVTRKYTRQILEGMSYLHSNMIVHRDIKGANILRDSAGNVKLGDFGASKRLQTICMSGTGIRSVTGTPYWMSPEVISGEGYGRKADVWSLGCTVVEMLTEKPPWAEYEAMAAIFKIATQPTNPQLPSHISEHGRDFLRRIFVEARQRPSAEELLTHHFAQLVY
notes: Endogenous protein in mouse BMDM lysates; also called Map3k3
With B4, the binding result in assay [4] is listed as “binds”.
